Measurements: US20220153854A1

Molecular target: membrane bound human OX40L on CHO-KI cells (human) (UniProt P23510)
Experiment: cell-based or functional assay

Chain of membrane bound human OX40L on CHO-KI cells (human) (P23510 whole entry): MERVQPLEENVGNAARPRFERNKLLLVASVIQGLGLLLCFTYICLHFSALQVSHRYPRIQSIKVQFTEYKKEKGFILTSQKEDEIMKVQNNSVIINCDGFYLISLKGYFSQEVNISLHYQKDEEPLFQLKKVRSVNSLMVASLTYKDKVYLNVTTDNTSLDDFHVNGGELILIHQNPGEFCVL

B1: ISVD construct F027100172 (protein, part only; not given: anti-IL-13 building blocks, part only)
chain, part: DVQLVESGGGVVQPGGSLRLSCAASRSIGRYDRMGWYRHRPGEPRELVATITGGSSINYGDSVKGRFTISIDNSKNTVYLQMNSLRPEDTALYYCNFNKYQISRDTWGQGTLVTVSSGGGGSGGGSGGGGSGGGSEVQLVESGGGVVQPGGSLRLSCAASGFTFRSFGMSWVRQAPGKGPEWVSSISGSGSDTLYADSVKGRFTISRDNSKNTLYLQMNSLRPEDTALYYCTIGGSLSRSSQGTLVTVSSGGGGSGGGS
PBMC activity assay IC50: 2.5 nM | fold better potency in the OX40L-driven PBMC activity assay against the non-affinity matured counterpart (15B07): 20 fold | fold better potency in the PBMC activity assay against F-027100179: 10 fold
